Measurements: patent US20110300138A1 (published 2011)
One block for each molecule: values may come before it.

Assays:
[1] = target: TSH receptor (full length human TSHR) coated on tubes (human) (UniProt P16473); assay: 125I-TSH binding inhibition read against NIBSC 90/672; 10 ng/mL, in serum
[2] = target: thyroid stimulating hormone receptor (TSHR), full length, coated on tubes (human) (UniProt P16473); assay: inhibition of 125I-TSH binding, TSHR coated tubes; antibody 0.001 µg/mL in assay buffer; mean of duplicate
[3] = target: human TSH receptor (full length) coated on ELISA plate wells (human) (UniProt P16473); assay: TSH-biotin binding inhibition ELISA, TSHR coated wells; 0.03 µg/mL in assay buffer + 100 µg/mL 5B3 IgG
[4] = target: TSHR (full length) coated on tubes (human) (UniProt P16473); assay: inhibition of 125I-K1-18 Fab (competitor) binding to TSHR coated tubes; negative control 100 µg/mL in assay buffer
[5] = target: TSH receptor (TSHR) coated on tubes (human) (UniProt P16473); assay: inhibition of 125I-K1-70 IgG binding to TSHR coated tubes; negative control 10 µg/mL in assay buffer
[6] = target: human TSH receptor (full length) coated on ELISA plate wells (human) (UniProt P16473); assay: TSH-biotin binding inhibition ELISA, TSHR coated wells; 10 µg/mL in assay buffer + 100 µg/mL 5B3 IgG; negative control MAb
[7] = target: human thyroid stimulating hormone receptor (TSHR), full length (human) (UniProt P16473); assay: 125I-K1-70 Fab (competitor) binding to TSHR coated tubes; negative control MAb 100 µg/mL in assay buffer
[8] = target: TSHR (thyroid stimulating hormone receptor), full length human (human) (UniProt P16473); assay: negative control; competitor ^125I-K1-70 IgG, TSHR coated tubes; 0.1 µg/mL in HBD
[9] = target: human TSH receptor (full length) coated on ELISA plate wells (human) (UniProt P16473); assay: TSH-biotin binding inhibition ELISA, TSHR coated wells; 100 µg/mL in assay buffer + 100 µg/mL 5B3 IgG; negative control MAb
[10] = target: TSH receptor (TSHR), full length human, coated on tubes (human) (UniProt P16473); assay: inhibition of 125I-TSH binding to TSHR coated tubes; 0.01 µg/mL, diluted in assay buffer; mean of duplicates
[11] = target: TSH receptor (TSHR), full length human, coated on tubes (human) (UniProt P16473); assay: inhibition of 125I-K1-18 IgG binding to TSHR coated tubes; competitor 125I-K1-18 IgG; negative control sample at 10 µg/mL in HBD serum; mean of duplicate
[12] = target: TSH receptor (TSHR), full length human, coated on tubes (human) (UniProt P16473); assay: inhibition of 125I-TSH binding to TSHR coated tubes; 10 µg/mL, diluted in HBD serum pool
[13] = target: human thyroid stimulating hormone receptor (TSHR), full length (human) (UniProt P16473); assay: 125I-K1-70 Fab (competitor) binding to TSHR coated tubes; negative control MAb 0.1 µg/mL in assay buffer
[14] = target: TSH receptor (full length human TSHR) (human) (UniProt P16473); assay: competition ELISA: inhibition of M22 Fab-peroxidase (competitor) binding to TSHR coated wells; negative control at 0.01 µg/mL diluted in HBD serum pool
[15] = target: TSH receptor (TSHR), full length human, coated on tubes (human) (UniProt P16473); assay: inhibition of 125I-K1-18 IgG binding to TSHR coated tubes; competitor 125I-K1-18 IgG; sample at 0.1 µg/mL in HBD serum
[16] = target: TSHR (thyroid stimulating hormone receptor), full length human (human) (UniProt P16473); assay: competitor ^125I-K1-70 IgG, TSHR coated tubes; 0.01 µg/mL in HBD
[17] = target: TSHR (thyroid stimulating hormone receptor), full length human (human) (UniProt P16473); assay: competitor ^125I-K1-70 IgG, TSHR coated tubes; 0.01 µg/mL in assay buffer
[18] = target: TSHR (full length) coated on tubes (human) (UniProt P16473); assay: inhibition of 125I-K1-18 Fab (competitor) binding to TSHR coated tubes; test sample 0.1 µg/mL in assay buffer
[19] = target: TSHR (full length) coated on tubes (human) (UniProt P16473); assay: inhibition of 125I-K1-18 Fab (competitor) binding to TSHR coated tubes; test sample 10 µg/mL in HBD serum
[20] = target: thyroid stimulating hormone receptor (full length human TSHR) (human) (UniProt P16473); assay: ELISA: inhibition of M22 Fab-peroxidase (competitor) binding to TSHR coated wells; 100 µg/mL, diluted in assay buffer
[21] = target: human thyroid stimulating hormone receptor (TSHR), full length (human) (UniProt P16473); assay: 125I-K1-18 Fab competition, TSHR coated tubes; 0.1 µg/mL in assay buffer
[22] = target: thyroid stimulating hormone receptor (full length human TSHR) (human) (UniProt P16473); assay: ELISA, inhibition of TSH-biotin binding to TSHR coated wells; 0.1 µg/mL, diluted in HBD serum pool
[23] = target: thyroid stimulating hormone receptor (full length human TSHR) (human) (UniProt P16473); assay: ELISA, inhibition of TSH-biotin binding to TSHR coated wells; 1 µg/mL, diluted in HBD serum pool
[24] = target: thyroid stimulating hormone receptor (full length human TSHR) (human) (UniProt P16473); assay: ELISA: inhibition of M22 Fab-peroxidase (competitor) binding to TSHR coated wells; 10 µg/mL, diluted in assay buffer
[25] = target: thyroid stimulating hormone receptor (full length human TSHR) (human) (UniProt P16473); assay: ELISA: inhibition of M22 Fab-peroxidase (competitor) binding to TSHR coated wells; 10 µg/mL, diluted in HBD serum pool
[26] = target: thyroid stimulating hormone receptor (full length human TSHR) (human) (UniProt P16473); assay: ELISA: inhibition of M22 Fab-peroxidase (competitor) binding to TSHR coated wells; 1 µg/mL, diluted in assay buffer

- Inhibition of binding (%) [4]: 6.3%
- Inhibition of binding (%) [5]: -2.1%
- % inhibition of TSH-biotin binding [6]: -4.8%
- Inhibition of binding (%) [7]: 1.4%
- Inhibition of binding (%) [8]: -3.6%
- % inhibition of TSH-biotin binding [9]: 1.1%
- Inhibition of binding (%) [10]: -5.8%
- Inhibition of binding (%) [11]: -0.1%
- Inhibition of binding (%) [12]: -1.9%
- Inhibition of binding (%) [13]: 2.2%
- Inhibition of binding (%) [14]: 4.3%
Molecule: 5B3 IgG (antibody)

- Inhibition of binding (%) [15]: 33.8%
- Inhibition of binding (%) [16]: 0.6%
- Inhibition of binding (%) [17]: 9.4%
- Inhibition of binding (%) [18]: 48.6%
- Inhibition of binding (%) [19]: 73.9%
Molecule: 9D33 IgG (antibody)

Second part, the molecule before the results:

Molecule: M22 IgG (antibody)
- units/L [1]: 1.5 units/L
- units/mg [1]: 150 units/mg
- Inhibition of binding (%) [2]: 1.5%
- % inhibition of TSH-biotin binding [3]: 43.6%

B1: 5C9 IgG (antibody, from another filing, V domains shown)
VH: EVQLVESGGGLIQPGGSLRLSCAASGFTVSSNYMSWVRQAPGKGLEWVSVTYSGGSTSYADSVKGRFTISRDNSKNTLYLQMNSLRAEDTAVYYCARGGRYCSSISCYARSGCDYWGQGTLVTVSS
VL: AIQMTQSPSSLSASVGDRVTITCRASQSISNYLNWYQQKPGKAPKLLIYAASSLQSGVPSRFSGSGSGTDFTLTISSLQPEDFATYYCQQSYSSPSTTFGQGTKLEIK
- Inhibition of binding (%) [20]: 24.6%
- Inhibition of binding (%) [21]: 27.7%
- Inhibition of binding (%) [22]: 10.4%
- Inhibition of binding (%) [23]: 28.5%
- Inhibition of binding (%) [24]: 13.2%
- Inhibition of binding (%) [25]: 13%
- Inhibition of binding (%) [26]: 12.1%
